Positions of bridges follow the written chain, without caps; N, C: chain ends. Residues, ends and D or L forms follow the SMILES beside them. Groups on a side chain read outwards from the residue. Chains are numbered I, II in the order given. *: point of attachment. Daunorubicin(13-NOCH2CO) = COc1cccc2c1C(=O)c1c(O)c3c(c(O)c1C2=O)C[C@@](O)(C(C)=NOCC(=O)*)C[C@@H]3O[C@H]1C[C@H](N)[C@H](O)[C@H](C)O1
Experiments:
[1] = non-conjugated cyclic peptides; cited from earlier work
Source text: Cyclic NGR peptides are promising candidates as targeting moieties for drug delivery to CD13-positive tumor cells and the tumor neovasculature. Up to now the most widely used NGR peptide conjugates have been based on the disulfide bridge containing cyclic peptide [CNGRC]. The cargo (including tumor necrosis factor (TNF), platina complexes, etc.) is usually attached to the C-terminus of the peptide. Recently, an amide bond containing cyclic NGR peptide ([KNGRE]-NH2) with higher resilience against deamidation has been described, in which cargos such as fluorescent labels or chelated ...

[2] = Lysosomal degradation; format: in vitro ADME; settings: rat liver lysosomal homogenate, 37°C, LC-MS; for starting conjugate found after 6 h incubation in lysosomal homogenate: 0.2 M NaOAc pH 5.0, 1:1 w/w; for rate of decomposition in lysosomal homogenate / time within which the conjugate decomposed in lysosomal homogenate: 0.2 M NaOAc pH 5.0, conjugate/homogenate 1:1 w/w; for time within which the conjugate decomposed in lysosomal homogenate: conjugate 0.2 μg/μL, samples at 5 min, 72 h; for starting conjugate found after 6 h incubation in lysosomal homogenate / time within which the conjugate decomposed in lysosomal homogenate: 6 h
Description: Rat liver lysosomal homogenate was prepared as described previously. Protein concentration was determined with bicinchoninic acid (Pierce BCA protein assay) according to the manufacturer’s protocol (ThermoFisher Scientific, Rockford, IL, USA) and it was 17.4 μg/μL. Degradation of the bioconjugates in the rat liver lysosomal homogenate was determined as follows: i) bioconjugates were dissolved in d.i. water at a concentration of 4 μg/μL, ii) the solutes were further diluted to a concentration of 0.2 μg/μL with 0.2 M NaOAc (pH 5.0), iii) the rat liver lysosomal homogenate was diluted with 0.2 M NaOAc (pH 5.0) to a concentration of 3.48 μg/μL, iv) the homogenate was added to the conjugates (conjugate/lysosomal homogenate ratio = 1:1, w/w), v) the reaction mixtures were incubated at 37°C and aliquots of 13 μL were taken at 5 min, 6 h and 72 h, vi) the reactions were quenched by adding 2 μL of formic acid, followed by LC-MS analysis (Bruker Esquire 3000+; Jasco PU-2085plus system; Supelco Ascentis C18 coloum, 3 μm, 2,1 x 150 mm, 100 Å).
Conjugates for drug targeting with receptor-binding peptides may enter the cells by receptor mediated endocytosis. Endocytic vesicles fuse with lysosomes, which is followed by the degradation of the conjugates by lysosomal enzymes. Cathepsin B is one of the main lysosomal enzymes overexpressed in cancer cells. Therefore, Cathepsin B labile spacers (e.g. GFLG tetrapeptide) are often incorporated between the drug and targeting moiety. We used a rat lysosomal homogenate to study the degradation of conjugates and to follow the release of drug containing metabolites (Fig 9, S9–S14 Figs). […] In addition, a minor peak corresponding to Dau = Aoa-Gly-Phe-OH could also be detected. The peak corresponding to Dau = Aoa-GF-OH was the highest in case of conjugate 1. In contrast to these conjugates, decomposition of the disulfide bond containing conjugate (2) was much slower. […] This slow degradation might be one of the reasons why conjugate 2 is less toxic than conjugate 5, which has the same ring size. […] After 72 h only Dau = Aoa-Gly-OH could be detected in cases of all conjugates.

[3] = test system: HT-1080 cells; assay: Cellular uptake by flow cytometry; format: cell-based, human; settings: 10 μM conjugate in FBS supplemented medium, 6 h, 37°C, flow cytometry of Dau fluorescence, live cells (Zombie Violet)
Description: (§1) HT-1080 and HT-29 cells were seeded at a 250,000 cells/well density, and were incubated overnight in their culturing media. The following day daunomycin conjugates were dissolved in culturing media (FBS supplemented), and added to the cells immediately at 10 μM final concentration. After 6 h incubation at 37°C the supernatant was removed, cells were washed with PBS and trypsinized with 0.1% trypsin (Gibco® by Life Technologies) for 10 minutes. Trypsinization was terminated with FBS containing medium, then cells were washed and suspended in serum free medium. For live/dead distinction we used Zombie Violet reagent (BioLegend, San Diego, CA). Samples were measured and analyzed with an Attune® Acoustic Focusing Cytometer (ThermoFisher Scientific).
(§2) As daunomycin-conjugates are fluorescent, we were able to follow their cellular uptake with a flow cytometer (Fig 10, S15 Fig). […] The higher uptake of 2 compared to 5 might partly compensate its slower degradation resulting in almost similar bioactivity. […] We speculate that the high cytostatic effect of 3 is explained by its fast decomposition resulting in the active Dau = Aoa-Gly-OH metabolite. […] However, after deamidation the formed isoDGR might be recognized by RGD integrin receptor, that results in moderate cytotoxicity in both cell lines during a longer treatment. […] Taking also the slow metabolite release into account, this observation explains the lack of significant cytostatic effect.
(§3) Fig 10 Direct uptake of daunomycin-conjugates. Normalized uptake values indicate the fold increase of the measured fluorescent units compared to the autofluorescence of empty cells.

[4] = test system: HT-29 cells; assay: Cellular uptake by flow cytometry; format: cell-based, human; settings: 10 μM conjugate in FBS supplemented medium, 6 h, 37°C, flow cytometry of Dau fluorescence, live cells (Zombie Violet)
Description: as §1, §2, §3

Molecule | chemostability class of the free cyclic NGR peptide (deamidation) [1] | starting conjugate found after 6 h incubation in lysosomal homogenate [2] | rate of decomposition in lysosomal homogenate [2] | cellular uptake in HT-1080 cells [3] | cellular uptake in HT-29 cells [4] | time within which the conjugate decomposed in lysosomal homogenate [2] [h]
c[CH2-CO-NGRC]-NH2 | highly labile |  |  |  |  | 
Ac-CNGRC-NH2 (disulfide 1-5) [Ac-[CNGRC]-NH2, disulfide bridge containing cyclic NGR peptide] | moderately |  |  |  |  | 
COc1cccc2c1C(=O)c1c(O)c3c(c(O)c1C2=O)C[C@@](O)(C(C)=NOCC(=O)NCC(=O)N[C@@H](Cc1ccccc1)C(=O)N[C@@H](CC(C)C)C(=O)NCC(=O)NCCCC[C@@H]1NC(=O)CC[C@@H](C(N)=O)NC(=O)[C@H](CCCNC(=N)N)NC(=O)CNC(=O)[C@H](CC(N)=O)NC1=O)C[C@@H]3O[C@H]1C[C@H](N)[C@H](O)[C@H](C)O1 [compound 6, [K(Dau = Aoa-GFLG)NGRE]-NH2] (K([Gly-Leu-Phe-Gly-Daunorubicin(13-NOCH2CO)])NGRE-NH2; lactam N-5) |  | the main components were still the intact conjugates | decomposed very slowly | low cellular uptake | low cellular uptake | 
COc1cccc2c1C(=O)c1c(O)c3c(c(O)c1C2=O)C[C@@](O)(C(C)=NOCC(=O)NCC(=O)N[C@@H](Cc1ccccc1)C(=O)N[C@@H](CC(C)C)C(=O)NCC(=O)N[C@@H](CCCCNC(=O)CNC(=O)CNC(=O)[C@@H]1CSCC(=O)N[C@@H](CC(N)=O)C(=O)NCC(=O)N[C@@H](CCCNC(=N)N)C(=O)N1)C(N)=O)C[C@@H]3O[C@H]1C[C@H](N)[C@H](O)[C@H](C)O1 [compound 1, Dau = GFLGK([CH2CO-NGRC]GG)-NH2] (I: {CH2CO}-NGRCGG / II: {Daunorubicin(13-NOCH2CO)}-GFLGK-NH2; amide I:C-II:5; thioether I:N-I:4) |  |  |  | did not show significant cellular uptake | did not show significant cellular uptake | ≤ 6
c[KNGRE]-NH2 (lariat or depsi) [head-to-side chain amide bond cyclized NGR peptide] | stable |  |  |  |  | 
c[CH2-CO-KNGRC]-NH2 (sidechain bridge or staple) [thioether bond containing cyclic NGR peptide] | highly labile |  |  |  |  | 
COc1cccc2c1C(=O)c1c(O)c3c(c(O)c1C2=O)C[C@@](O)(C(C)=NOCC(=O)NCC(=O)N[C@@H](Cc1ccccc1)C(=O)N[C@@H](CC(C)C)C(=O)NCC(=O)NCCCC[C@@H]1NC(=O)CSC[C@@H](C(N)=O)NC(=O)[C@H](CCCNC(=N)N)NC(=O)CNC(=O)[C@H](CC(N)=O)NC1=O)C[C@@H]3O[C@H]1C[C@H](N)[C@H](O)[C@H](C)O1 [compound 4, [CH2CO-K(Dau = Aoa-GFLG)NGRC]-NH2] ({CH2CO}-K([Gly-Leu-Phe-Gly-Daunorubicin(13-NOCH2CO)])NGRC-NH2; thioether N-5) |  | the main components were still the intact conjugates | decomposed very slowly | low cellular uptake | low cellular uptake | 
COc1cccc2c1C(=O)c1c(O)c3c(c(O)c1C2=O)C[C@@](O)(C(C)=NOCC(=O)NCC(=O)N[C@@H](Cc1ccccc1)C(=O)N[C@@H](CC(C)C)C(=O)NCC(=O)N[C@@H](CCCCNC(=O)CNC(=O)CNC(=O)[C@@H]1CSSC[C@H](NC(C)=O)C(=O)N[C@@H](CC(N)=O)C(=O)NCC(=O)N[C@@H](CCCNC(=N)N)C(=O)N1)C(N)=O)C[C@@H]3O[C@H]1C[C@H](N)[C@H](O)[C@H](C)O1 [compound 2, Dau = GFLGK(Ac-[CNGRC]GG)-NH2] (I: Ac-CNGRCGG / II: {Daunorubicin(13-NOCH2CO)}-GFLGK-NH2; disulfide I:1-I:5; amide I:C-II:5) |  | the presence of the starting compound could be detected | much slower | higher accumulation | higher accumulation | 
COc1cccc2c1C(=O)c1c(O)c3c(c(O)c1C2=O)C[C@@](O)(C(C)=NOCC(=O)NCC(=O)N[C@@H](Cc1ccccc1)C(=O)N[C@@H](CC(C)C)C(=O)NCC(=O)N[C@@H](CCCCNC(=O)CNC(=O)CNC(=O)[C@@H]1CSCC(=O)N[C@@H](CCCCN)C(=O)N[C@@H](CC(N)=O)C(=O)NCC(=O)N[C@@H](CCCNC(=N)N)C(=O)N1)C(N)=O)C[C@@H]3O[C@H]1C[C@H](N)[C@H](O)[C@H](C)O1 [compound 3, Dau = GFLGK([CH2CO-KNGRC]GG)-NH2] (I: {CH2CO}-KNGRCGG / II: {Daunorubicin(13-NOCH2CO)}-GFLGK-NH2; amide I:C-II:5; thioether I:N-I:5) |  |  |  | moderate uptake | moderate uptake | ≤ 6

Source: PMC5456102, “NGR-peptide−drug conjugates with dual targeting properties” (PLoS ONE, 2017)
